In patent US8598081B2, “Specific delivery of agrochemicals” (priority 2010, dated 2013):

T1: potato lectin (Solanum tuberosum, UniProt Q9S8M0)
T1 construct: purchased Sigma
T1 sequence (Q9S8M0 whole entry, looked up): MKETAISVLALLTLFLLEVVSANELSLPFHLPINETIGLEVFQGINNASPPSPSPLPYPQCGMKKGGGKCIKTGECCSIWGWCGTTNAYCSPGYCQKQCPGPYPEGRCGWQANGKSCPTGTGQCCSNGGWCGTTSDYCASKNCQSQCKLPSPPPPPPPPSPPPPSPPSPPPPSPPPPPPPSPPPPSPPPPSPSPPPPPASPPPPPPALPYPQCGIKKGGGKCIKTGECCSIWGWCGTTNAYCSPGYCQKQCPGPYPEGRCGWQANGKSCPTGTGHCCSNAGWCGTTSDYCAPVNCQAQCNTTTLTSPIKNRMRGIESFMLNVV

B1: VHH 3E6: VHH binding gum arabic, potato lectin and leaf surface; SEQ ID NO:7 by order of the list (protein, listed as Lama glama)
VHH: QVQLQESGGGLVQPGGTLSLSCAASGFNVRWYGMGWFRQAPGKEREGVACISALQETTAYADSVKGRFTLSRDNPKNTLSLQMNNLQPEDTGVYYCATTDCDDSSRMTYTSYLGQGTQVTVSS
modifications: 3E6
B2: Microcapsules containing uvitex OB VHH 3E6: polyurea microcapsules containing the fluorescent tracer Uvitex OB, coupled with (monovalent) VHH 3E6 (conjugate)
VHH: B1 VHH
modifications: left off: small tags and cut ends
notes: polyurea microcapsules containing the fluorescent tracer Uvitex OB, coupled with (monovalent) VHH 3E6

Columns and labels:
[1] = tested on: surface of grass leaves; test: VHH binding to non-fixed leaf discs, grass; conditions: 5 μg/ml, detection with anti-histidine Alexa-488
Experimental: VHH binding to non-fixed leaf discs of potato (variety Desiree), black nightshade, grass, wheat or azalea was investigated. For comparison, binding of CBM3a to non-fixed leaf discs of potato (variety Desiree) was analyzed in parallel. Leaf discs were prepared by punching a fresh potato leaf with a 5 mm belt hole puncher tool. Leaf discs were put immediately in wells of a 96-well plate containing 200 μl per well 5% MPBS or PBS, and incubated for 30 minutes. Leaf discs were transferred to solutions containing 5 μg/ml VHH antibody fragment, respectively, 5 μg/ml CBM3a in 2% MPBS or PBS and incubated for 60-90 minutes. Unbound VHH or CBM3a proteins were removed by washing three times with 2% MPBS or PBS. Bound VHH or CBM3a proteins were detected with incubation with monoclonal mouse anti-histidine antibodies directly conjugated with Alexa-488 fluorescent dye (Abd Serotec) in 1% MPBS for 1 hour. Unbound antibodies were removed by washing three times with PBS. Leaf discs were put on glass slides, covered with cover slips, and analyzed by microscopy or on a macrozoom microscope system (Nikon) or a SP5 confocal microscope system (Leica).

[2] = biological target: T1, potato lectin; test: ELISA-like assay, microcapsules with monovalent or bivalent VHH, potato lectin; assay type: binding; design: Surface area of bound microcapsules: unit not given here; conditions: for Surface area of bound microcapsules: Uvitex microcapsules
Text: Bivalent VHH constructs were produced in bacteria by cloning two VHH sequences in tandem into the pASF22 vector, creating a fusion of two VHH with a 9 glycine-serine linker (GGGGSGGGS (SEQ ID NO:50)) in between the two VHH. pASF22 is an in-house produced pMES derivative. The tags that were used were C-terminal c-Myc (EQKLISEEDLN (SEQ ID NO:51)) and hexahistidine (HHHHHH (SEQ ID NO:52)). A triple alanine linker (AAA) was placed in between the C-terminal end of the VHH and the c-Myc tag and a glycine-alanine-alanine (GAA) linker was used in between the C-terminal end of the c-Myc tag and the hexahistidine tag. The complete sequence C-terminal of the bivalent VHH that was used: AAA-EQKLISEEDLN-GAA-HHHHHH (SEQ ID NO:53). Fresh overnight cultures were produced by starting from colony streaks and inoculation of 2×TY media supplemented with 2% glucose and 100 μg/ml ampicillin. The overnight cultures were used to inoculate fresh cultures 1:100 in 2×TY media with 0.1% glucose and 100 μg/ml ampicillin. After growing at 37° C. in a shaking incubator for 3 hours, IPTG was added to a 1 mM final concentration and recombinant bivalent VHH were produced during an additional incubation for 4 hours. Cells were spun down and resuspended in 1/50th of the original culture volume of PBS and incubated with head-over-head rotation at 4° C. for 30 minutes. Spheroplasts were spun down by centrifugation at 3,000 g and 4° C. for 20 minutes. Supernatants were transferred to fresh tubes and centrifuged again at 3,000 g and 4° C. for 20 minutes. The supernatant was collected and sodium chloride concentration was adjusted to 500 mM and imidazole concentration to 20 mM. Hexahistidine-tagged bivalent VHH were purified from the extracts using HisTrap FF Crude 5 ml IMAC columns (GE Lifesciences) and HiLoad 16/60 Superdex 75 prep grade gel filtration column (GE Lifesciences) on an AKTAxpress system (GE Lifesciences) following standard procedures.
Next, it was investigated if binding of microcapsules to surfaces could be improved by using targeting agents comprising multivalent VHH. A series of parallel couplings was performed with equal amounts of monovalent VHH, bivalent VHH, and unrelated VHH. Success of coupling of VHH and multivalent VHH were analyzed as described in Example 4. An ELISA-like assay was performed using high bind half area microplates (Greiner Bio-One) coated with 5 μg/well potato lectin. Control wells included blank wells or wells coated with unrelated antigens. Plates were washed three times with PBS with 0.05%-TWEEN®-20 and blocked with 5% skimmed milk in PBS for 1 to 2 hours. VHH-coupled Uvitex-containing microcapsules were diluted to appropriate densities in 1% skimmed milk in PBS with 0.05%-TWEEN®-20. Five-fold serial dilution series were prepared and allowed to bind to the surface to compare binding of microcapsules coupled with monovalent or bivalent VHH. Microcapsules were added to the antigen-coated or control wells and allowed to bind for 1 hour. Unbound microcapsules were removed by washing five times with PBS with 0.05%-TWEEN®-20. The bottoms of ELISA plate wells were analyzed for bound microcapsules on a macrozoom microscope system (Nikon). Microcapsules were counted using Volocity image analysis software (Perkin Elmer). A DAPI filter was used to visualize Uvitex microcapsules. […] The surface area of microcapsules with coupled bivalent VHH was 15-fold above the surface area of blank microcapsules applied at this microcapsule density while the surface area of microcapsules with monovalent VHH was only six-fold above the surface area of blank microcapsules applied at this microcapsule density. This difference could be explained by an increase in binding strength due to additional avidity of the bivalent VHH compared to monovalent VHH, it could also be that the use of bivalent VHH increases flexibility and spacer length of the coupled targeting agents on microcapsules, or a combination of both.

| Molecule | binding to native grass leaf surface (fluorescence microscopy) [1] | binding to native grass leaf surface (fluorescence microscopy) ([1]; listed as 3E6) | surface area of bound microcapsules above the surface area of blank microcapsules ([2]; application of 25-fold less microcapsules, potato lectin) | Surface area of bound microcapsules ([2]; no coating (first series, with potato lectin rows), surface coverage 100%) | Surface area of bound microcapsules ([2]; potato lectin, surface coverage 4%) | Surface area of bound microcapsules ([2]; potato lectin, surface coverage 20%) | Surface area of bound microcapsules ([2]; potato lectin, surface coverage 100%) |
| --- | --- | --- | --- | --- | --- | --- | --- |
| B1 | binding to leaf surface and wounded plant tissue | bind specifically | – | – | – | – | – |
| B2 | – | – | six-fold | 74.536 | 59.377 | 307.478 | 415.773 |
